This note sets out measurements from publication PMC8448959 (ACS chemical biology, 2021).

Where two headings read alike, the source gives them in different places. Square brackets hold non-standard residues; d marks the D form. Ends that are not written are not given here. * marks the point of attachment. Lys(Et,iPr) = CCN(CCCC[C@H](N)C(=O)O)C(C)C; 4‑piperidine cap = not defined here; cyclohexyl = C1CCC(*)CC1

For orientation: IC50 means the point on the concentration scale where inhibition reaches its midpoint.

Common to all, as to assay: AlphaScreen or HTRF
Assay [1] addresses T1, MPP8 chromodomain (residues 55-116), N-terminal His-tag (UniProt Q99549-1 55-116).
T1 sequence (looked up): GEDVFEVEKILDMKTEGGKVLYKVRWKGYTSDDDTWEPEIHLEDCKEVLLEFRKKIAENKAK

For assay [2], the target named is T2, CDYL2 chromodomain (residues 1-75), C-terminal His-tag (UniProt Q8N8U2 1-75).
T2 sequence (looked up): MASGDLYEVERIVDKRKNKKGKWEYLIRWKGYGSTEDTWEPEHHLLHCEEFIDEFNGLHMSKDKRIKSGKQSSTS

The target of assay [3] is T3, CBX7 chromodomain (residues 8-62), C-terminal His-tag (UniProt O95931 8-62).
T3 sequence (looked up): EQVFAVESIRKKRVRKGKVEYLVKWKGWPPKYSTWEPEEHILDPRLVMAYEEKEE

In assay [4] the target is T1, MPP8 chromodomain (residues 55-116), …. This is another data set of the same source.
For assay [5], the target named is T3, CBX7 chromodomain (residues 8-62), …. This is another data set of the same source.

With {4‑piperidine cap}-FAFKS-OMe (reading uncertain; also: Lys4: lysine mimetic with a pyrroline substituent) [UNC6262], the concentration for half-maximal inhibition (IC50) in assay [1] was 1400 nM; in assay [2], 700 nM; in assay [3], greater than 30000 nM.

B1: UNC6216 (peptide)
chain: FAFKS
modifications: N-terminal 4-piperidine cap; lysine mimetic with a methyl-cyclopentyl amine; C-terminal methyl ester
Take B1: the values for the 50% inhibitory concentration (IC50) in assay [1], in assay [2] and in assay [3] were 450 nM, 90 nM and greater than 30000 nM, respectively.

Take FAF[Lys(Et,iPr)]S-OMe (not fully specified (N-terminus); also: N-terminal cap R1 not given here) [UNC6263]: the figures for the 50% inhibitory concentration (IC50) in assay [4] and in assay [5] were 900 nM and 6000 nM, respectively.

B2: UNC6218 (peptide)
chain: {4‑piperidine cap}-FAFKS-OMe
modifications: reading uncertain; also: Lys4: lysine mimetic with a tetrahydropyran substituent
In the case of B2, the IC50 is 500 nM in assay [1], 100 nM in assay [2] and greater than 30000 nM in assay [3].

B3: UNC6254 (peptide)
chain: FAFKS
modifications: N-terminal 4-piperidine cap; lysine mimetic with increased steric bulk on the lysine amine; C-terminal methyl ester
For the molecule B3, the 50% inhibitory concentration (IC50) in assay [1] is 800 nM; in assay [2], 200 nM; in assay [3] it was greater than 30000 nM.

As to {4‑piperidine cap}-FAFKS-OMe (reading uncertain; also: lysine mimetic with a piperidine substituent) [UNC6127], the half-inhibitory concentration (IC50) is 700 nM in assay [1], 200 nM in assay [2] and greater than 30000 nM in assay [3].

Consider {4‑piperidine cap}-FAFK(cyclohexyl)S-OMe (reading uncertain; also: Lys4: lysine mimetic with a cyclohexyl substituent) [UNC6217], for which the results for the IC50 in assay [1], in assay [2] and in assay [3] were 400 nM, 70 nM and greater than 30000 nM, respectively.

For FAF[Lys(Et,iPr)]S-OMe (not fully specified (N-terminus); also: N-terminal cap R1 not given here) [UNC6257], the values for the 50% inhibitory concentration (IC50) in assay [4] and in assay [5] were 400 nM and 7000 nM, respectively.
